Data as given in US20250215072A1 (published 2025).

Columns and labels:
[1] = target: T1, human GARP-proTGFβ1 complex (human, UniProt P01137 30-390; Q14392 20-627); test: BLI (Octet)
T1 construct: also called hGARP-proTGFβ1; hGARP
Method: (§1) The affinity of anti-TGFβ1 antibodies was measured by Octet@ assay on human proTGFβ1 cells, while activity was measured by CAGA12 reporter cells testing human proTGFβ1 inhibition.

[2] = target: T2, human LRRC33-proTGFβ1 complex (human, UniProt P01137 30-390; Q86YC3 19-650); test: BLI (Octet)
T2 construct: also called hLRRC33-proTGFβ1; hLRRC33
Method: as §1

T1 sequence (P01137 30-390, chain 1 of 2): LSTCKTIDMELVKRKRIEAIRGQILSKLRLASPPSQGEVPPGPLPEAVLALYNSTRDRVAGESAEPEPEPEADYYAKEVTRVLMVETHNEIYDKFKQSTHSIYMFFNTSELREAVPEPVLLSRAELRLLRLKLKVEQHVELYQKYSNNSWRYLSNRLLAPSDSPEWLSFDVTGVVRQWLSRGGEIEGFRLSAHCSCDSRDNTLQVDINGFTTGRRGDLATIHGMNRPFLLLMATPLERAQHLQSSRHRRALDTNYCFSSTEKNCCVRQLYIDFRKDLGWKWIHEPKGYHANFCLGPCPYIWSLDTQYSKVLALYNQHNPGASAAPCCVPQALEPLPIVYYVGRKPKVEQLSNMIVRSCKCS
T1 sequence (Q14392 20-627, chain 2 of 2): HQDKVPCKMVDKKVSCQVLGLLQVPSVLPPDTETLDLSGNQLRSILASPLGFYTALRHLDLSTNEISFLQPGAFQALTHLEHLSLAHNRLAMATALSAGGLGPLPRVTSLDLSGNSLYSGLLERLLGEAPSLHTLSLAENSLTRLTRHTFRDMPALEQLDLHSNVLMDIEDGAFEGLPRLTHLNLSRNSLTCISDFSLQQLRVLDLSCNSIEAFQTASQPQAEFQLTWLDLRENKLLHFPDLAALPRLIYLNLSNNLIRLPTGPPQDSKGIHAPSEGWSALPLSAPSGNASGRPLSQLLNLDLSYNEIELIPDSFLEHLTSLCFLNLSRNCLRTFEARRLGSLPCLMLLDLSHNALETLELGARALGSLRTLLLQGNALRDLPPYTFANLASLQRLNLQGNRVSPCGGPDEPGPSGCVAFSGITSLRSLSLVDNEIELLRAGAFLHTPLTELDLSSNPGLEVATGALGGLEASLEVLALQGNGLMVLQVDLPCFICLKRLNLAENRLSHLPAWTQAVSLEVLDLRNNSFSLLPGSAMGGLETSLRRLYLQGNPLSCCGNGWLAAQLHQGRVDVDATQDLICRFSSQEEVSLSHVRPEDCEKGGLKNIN
T2 sequence (P01137 30-390 limits assumed, chain 1 of 2): as the sequence (P01137 30-390, chain 1 of 2) above
T2 sequence (Q86YC3 other isoform, or with tags, fused parts or gaps limits assumed, chain 2 of 2): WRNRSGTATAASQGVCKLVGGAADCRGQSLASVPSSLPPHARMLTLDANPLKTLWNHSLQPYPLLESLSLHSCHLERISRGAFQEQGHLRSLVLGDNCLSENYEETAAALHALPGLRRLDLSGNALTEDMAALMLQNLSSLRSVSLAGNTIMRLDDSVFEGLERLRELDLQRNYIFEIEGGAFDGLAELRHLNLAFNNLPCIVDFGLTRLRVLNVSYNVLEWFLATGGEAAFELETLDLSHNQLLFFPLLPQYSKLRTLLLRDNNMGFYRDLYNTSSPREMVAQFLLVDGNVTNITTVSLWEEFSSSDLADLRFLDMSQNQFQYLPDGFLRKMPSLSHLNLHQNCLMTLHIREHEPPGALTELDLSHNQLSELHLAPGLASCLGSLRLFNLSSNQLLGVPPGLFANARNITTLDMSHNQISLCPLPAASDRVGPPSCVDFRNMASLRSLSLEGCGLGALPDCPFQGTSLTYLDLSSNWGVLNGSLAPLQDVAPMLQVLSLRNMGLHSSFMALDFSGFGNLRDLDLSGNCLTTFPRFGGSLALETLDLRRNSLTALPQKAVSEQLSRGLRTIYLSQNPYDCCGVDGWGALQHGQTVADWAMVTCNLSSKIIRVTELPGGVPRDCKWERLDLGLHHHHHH

| Binder | Kd [1] | Kd [2] |
| --- | --- | --- |
| Ab27 (antibody, V domains shown) VH: EVQLVESGGGLVQPGGSLRLSCAASGFTFSFYAMNWVRQAPGKGLEWVSYISPDASTIYYADSVKGRFTISRDNAKNSLYLQMNSLRAEDTAVYYCARGVLDYGDMLDPWGQGTLVTVSS VL: DIQMTQSPSSLSASVGDRVTITCQASQDITNYLNWYQQKPGKAPKLLIYDASNLETGVPSRFSGSGSGTDFTFTISSLQPEDIATYYCQQADNHPPWTFGGGTKVEIK | 0.424 nM | 0.299 nM |
| Ab28 (antibody, V domains shown) VH: EVQLVESGGGLVQPGGSLRLSCAASGFTFSSFSMDWVRQAPGKGLEWVSYISPDASTIYYADSVKGRFTISRDNAKNSLYLQMNSLRAEDTAVYYCVRGVLDYGDMLDPWGQGTLVTVSS VL: DIQMTQSPSSLSASVGDRVTITCQASQDITNYLNWYQQKPGKAPKLLIYDASNLETGVPSRFSGSGSGTDFTFTISSLQPEDIATYYCQQADNHPPWTFGGGTKVEIK | 0.797 nM | 0.409 nM |
| Ab16 (antibody, V domains shown) VH: EVQLLESGGGLVQPGGSLRLSCAASGFTFSNYAMSWVRQAPGKGLEWVSAISGSGFTTYYADSVKGRFTISRDNSKNTLYLQMNSLRAEDTAVYYCARVSSGHWDFDYWGQGTLVTVSS VL: DIQLTQSPSSLSASVGDRVTITCRASQSISSYLNWYQQKPGKAPKLLIYAASNLQSGVPSRFSGSGSGTDFTLTISSLQPEDFATYYCQQTYTVPLTFGGGTKVEIK | 4.16 nM | 0.631 nM |
| Ab36 (antibody, V domains shown) VH: EVQLLESGGGLVQPGGSLRLSCAASGFTFRNYAMSWVRQAPGKGLEWVSSISGSGGATYYADSVKGRFTISRDNSKNTLYLQMNSLRAEDTAVYYCARVSSGHWDLDYWGQGTLVTVSS VL: not shown | 12.8 nM | 1.42 nM |
| Ab7 (antibody, V domains shown) VH: EVQLLESGGGLVQPGGSLRLSCAASGFTFADYAMTWVRQAPGKGLEWVSAISGTGAHTYYADSVKGRFTISRDNSKNTLYLQMNSLRAEDTAVYYCARVSSGHWDFDYWGQGTLVTVSS VL: not shown | 18 nM | 10.3 nM |
| Ab15 (antibody, V domains shown) VH: EVQLVESGGGVVQPGRSLRLSCAASGFTFSDYAMVWVRQAPGKGLEWVSAISGSGFTTYYADSVKGRFTISRDNSKNTLYLQMNSLRAEDTAVYYCARVSSGHWDFDYWGQGTLVTVSS VL: DIQLTQSPSSLSASVGDRVTITCRASQSISSYLNWYQQKPGKAPKLLIYAASNLQSGVPSRFSGSGSGTDFTLTISSLQPEDFATYYCQQTYTVPLTFGGGTKVEIK | 7.01 nM | 0.702 nM |
| Ab18 (antibody, V domains shown) VH: QVQLVESGGGVVQPGRSLRLSCAASGFTFSDYAMVWVRQAPGKGLEWVSAISGSGAATYFADSVKGRFTISRDNSKNTLYLQMNSLRAEDTAVYYCATVSSGHWDFDYWGQGTLVTVSS VL: DIQLTQSPSSLSASVGDRVTITCRASQSISSYLNWYQQKPGKAPKLLIYAASNLQSGVPSRFSGSGSGTDFTLTISSLQPEDFATYYCQQTYTVPLTFGGGTKVEIK | 11.5 nM | 1.02 nM |
| Ab17 (antibody, V domains shown) VH: EVQLLESGGGVVQPGGSLRLSCAASGFTFSSFAMTWVRQAPGKGLEWVSAISGSGAATYFADSVKGRFTISRDNSKNTLYLQMNSLRAEDTAVYYCARVSSGHWDFDYWGQGTLVTVSS VL: DIQLTQSPSSLSASVGDRVTITCRASQSISSYLNWYQQKPGKAPKLLIYAASNLQSGVPSRFSGSGSGTDFTLTISSLQPEDFATYYCQQTYTVPLTFGGGTKVEIK | 8.62 nM | 0.658 nM |
| Ab14 (antibody, V domains shown) VH: EVQLLESGGGLVQPGGSLRLSCAASGFTFSAYAMTWVRQAPGKGLEWVSAISGTGGSTYYADSVKGRFTISRDNSKNTLYLQMNSLRAEDTAVYYCARVSSGHWDFDYWGQGTLVTVSS VL: DIQMTQSPSSLSASVGDRVTITCRASQSISSYLNWYQQKPGKAPKLLIYAASSLQSGVPSRFSGSGSGTDFTLTISSLQPEDFATYYCQQVYDPPLTFGGGTKVEIK | 10.5 nM | 1.34 nM |
